“And” between values parts separate entries of the source, which are not always exact repeats. Equal entries are not always repeated.
How the values were obtained:
[1] = target: T1, Human OX40 expressed on the surface of activated human CD4+OX40+ T cells (human, UniProt P43489 29-277); assay: flow cytometry saturation binding on activated human CD4+ T cells; mean, n = 3
T1 construct: whole, on cells; Also used as the target for the functional assays on human PBMC (endogenous OX40); also called cell surface OX40; cell-surface expressed OX40
T1 sequence (looked up): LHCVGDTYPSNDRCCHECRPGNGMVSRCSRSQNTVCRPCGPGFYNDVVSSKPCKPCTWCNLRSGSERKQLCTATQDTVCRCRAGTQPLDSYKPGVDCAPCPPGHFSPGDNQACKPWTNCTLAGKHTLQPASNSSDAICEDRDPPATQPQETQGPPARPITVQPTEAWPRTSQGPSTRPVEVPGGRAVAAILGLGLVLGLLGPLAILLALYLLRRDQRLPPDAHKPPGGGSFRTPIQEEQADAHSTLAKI
Description: (§1) PBMC were isolated by separation on a Ficoll gradient and activated with 1 μg/mL PHA-L for 3 days at 37° C., 5% CO₂, 100% humidity. CD4⁺ T cells were isolated by negative selection using magnetic beads (CD4⁺ T cell Isolation Kit II for Human; Miltenyi Biotec). […] The cells were washed prior to analysis by flow cytometry using a FACScalibur (Becton Dickinson). Two titration curves were produced, one with A26Fab′-PEG and a second with gA33 Fab′-PEG as a non-specific binding control. Linear regression analysis was used to subtract non-specific binding and the specific binding curve thus generated was analysed by non-linear regression (Graphpad Prism®) to determine KD.

[2] = target: T2, Human OX40 extracellular (185 aa) domain fused to the murine IgG2a Fc (232 aa) (Ancell No 513-020) (human; murine, UniProt P43489 29-214); assay: BIAcore 3000 SPR; antibody captured by immobilised anti-human F(ab′)2, human OX40-mFc titrated as analyte
T2 construct: extracellular domain; Bought reagent; also called recombinant OX40; human extracellular domain OX40; not shown: murine IgG2a Fc, 232 aa
T2 sequence (looked up): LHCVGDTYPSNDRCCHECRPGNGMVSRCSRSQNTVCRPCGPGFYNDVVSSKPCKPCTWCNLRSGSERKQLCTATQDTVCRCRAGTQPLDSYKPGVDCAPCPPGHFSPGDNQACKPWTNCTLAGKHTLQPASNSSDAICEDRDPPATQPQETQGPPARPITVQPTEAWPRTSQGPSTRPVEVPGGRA
Description: (§2) BIA (Biamolecular Interaction Analysis) was performed using a BIAcore 3000 (BIAcore AB). Affinipure F(ab′)₂ Fragment goat anti-human IgG, F(ab′)₂ fragment specific (Jackson ImmunoResearch) was immobilised on a CM5 Sensor Chip via amine coupling chemistry to a capture level of ≈4000 response units (RUs). HBS-EP buffer (10 mM HEPES pH 7.4, 0.15 M NaCl, 3 mM EDTA, 0.005% Surfactant P20, BIAcore AB) was used as the running buffer with a flow rate of 10 μl/min. A 10 μl injection of Fab′ at 0.5 μg/mL or Fab′-PEG at 50 μg/mL was used for capture by the immobilised anti-human IgG-F(ab′)₂. Human OX40 was titrated over the captured antibody at various concentrations (25 nM to 0.78 nM) at a flow rate of 30 μL/min. The surface was regenerated by a 10 μL injection of 40 mM HCl, followed by a 5 μL injection of 5 mM NaOH at a flowrate of 10 μL/min.
(§3) Background subtraction binding curves were analysed using the BlAevaluation software (version 3.2) following standard procedures. Kinetic parameters were determined from the fitting algorithm.

[3] = target: Cynomolgus OX40 on activated cynomolgus CD4+ T cells (cynomolgus) (UniProt P79185); assay: flow cytometry equilibrium binding on activated CD4+ T cells, against human cells as reference
[4] = target: T1, Human OX40 expressed on the surface of …; assay: cell-based or functional assay
[5] = target: T1, Human OX40 expressed on the surface of …; assay: cell-based or functional assay; remark: listed apart in the source
[6] = target: T1, Human OX40 expressed on the surface of …; assay: flow cytometry ligand blocking assay on activated human CD4+OX40+ T cells; competitor biotinylated OX40L (CD252 muCD8) at 2 µg/ml
Description: The capacity of A26Fab′-PEG to block the interaction between cell-surface expressed OX40 and recombinant OX40L was measured using a flow cytometry-based ligand blocking assay. Briefly, activated human CD4⁺OX40⁺ T cells were pre-incubated with a titration of A26Fab′-PEG. Recombinant OX40L was subsequently added to the cells and allowed to bind in the presence of A26 Fab′-PEG. The proportion of OX40L bound was then detected by flow cytometry using a labelled secondary reagent.
Methods: Inhibition of OX40L binding to human activated CD4⁺OX40⁺ T Cells by A26Fab′-PEG. PBMC were isolated by separation on a Ficoll gradient and activated with 1 μg/mL PHA-L for 3 days at 37° C., 5% CO₂, 100% humidity. 2.5×10⁵ cells were incubated in the presence of antibody (final concentration range 20 μg/mL-0.0003 μg/mL (229 nM-0.0035 nM)) for 10 minutes on ice. OX40L (biotinylated CD252 muCD8, Ancell) was added at a final concentration of 2 μg/ml and incubated for a further 30 minutes on ice. Cells were washed and OX40L binding detected by incubation with PE-labelled streptavadin (Jackson Immunoresearch) prior to analysis by flow cytometry using a FACScalibur (Becton Dickinson). gA33 Fab′-PEG was used as a non-specific control. The inhibition curve was analysed by non-linear regression (Graphpad Prism®) to determine the IC₅₀. The data shown is from one representative donor of two.

[7] = target: T1, Human OX40 expressed on the surface of …; assay: flow cytometry saturation binding of FITC labelled antibody on activated human CD4+OX40+ T cells; one of 3 donors
Description: Binding of FITC labelled A26Fab′-PEG to activated human CD4⁺OX40⁺ T cells was measured by flow cytometry across a 4-log concentration range.
as §1

[8] = target: Cynomolgus OX40 on activated cynomolgus CD4+ T cells (cynomolgus) (UniProt P79185); assay: flow cytometry saturation binding on activated cynomolgus CD4+ T cells; n = 3
[9] = target: T3, Rhesus OX40 on activated rhesus CD4+ T cells (rhesus, UniProt P16003 26-458); assay: flow cytometry saturation binding on activated rhesus CD4+ T cells; n = 1
T3 sequence (P16003 26-458): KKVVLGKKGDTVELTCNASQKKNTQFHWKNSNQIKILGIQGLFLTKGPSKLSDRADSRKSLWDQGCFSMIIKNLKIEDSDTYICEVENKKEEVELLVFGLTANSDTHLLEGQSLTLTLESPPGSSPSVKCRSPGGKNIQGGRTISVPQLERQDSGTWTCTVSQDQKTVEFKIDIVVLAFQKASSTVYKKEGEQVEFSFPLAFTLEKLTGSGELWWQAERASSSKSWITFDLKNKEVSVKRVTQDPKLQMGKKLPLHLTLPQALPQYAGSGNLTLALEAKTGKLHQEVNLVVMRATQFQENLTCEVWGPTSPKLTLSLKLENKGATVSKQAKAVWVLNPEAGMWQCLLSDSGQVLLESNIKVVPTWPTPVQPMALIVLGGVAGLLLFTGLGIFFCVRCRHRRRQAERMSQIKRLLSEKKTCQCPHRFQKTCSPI

[10] = target: T2, Human OX40 extracellular (185 aa) …; assay: BIAcore 3000 SPR; antibody captured, human OX40-mFc as analyte; average of 4 determinations
Description: as §2, §3

[11] = target: T3, Rhesus OX40 on activated rhesus CD4+ T …; assay: flow cytometry equilibrium binding on activated CD4+ T cells, against human cells as reference
[12] = target: T2, Human OX40 extracellular (185 aa) …; assay: BIAcore 3000 SPR; antibody captured, human OX40-mFc as analyte; average of 5 determinations
Description: as §2, §3

B1: A26Fab′-PEG (PEGylated A26 Fab′ fragment) (Fab, V domains shown)
VH: EVQLVESGGGLVQPGGSLRLSCAASGFTFTNYGIHWIRQAPGKGLEWVASISPSGGLTYYRDSVKGRFTISRDDAKNSPYLQMNSLRAEDTAVYYCATGGEGIFDYWGQGTLVTVSS
VL: DIQMTQSPSSLSASVGDRVTITCRATQSIYNALAWYQQKPGKAPKLLIYNANTLHTGVPSRFSASGSGTDSTLTISSLQPEDFATYYCQQYYDYPLTFGGGTKVEIKR
modifications: Cys 226 (linear numbering of SEQ ID NO:15): lysyl-maleimide group, each amino group of the lysyl residue linked to a methoxypoly(ethyleneglycol) of about 20,000 Da (total PEG about 40,000 Da)
notes: also called A26Fab′-PEGylated
In the case of B1, the Kd [1] is reported as 1.11 nM, the Kd [2] is reported as 0.0137 to 0.0503 nM and the fold drop off in affinity as compared to human [3] is reported as under 2 fold. The “House Dust Mite - Inhibition of IL-13 production (n = 3), Mean IC50 (nM)” value [4] was 1.23 nM, the “House Dust Mite - Inhibition of IL-13 production (n = 3), Mean IC50 (µg/ml)” value [4] was 0.107 µg/mL and the “Mixed Lymphocyte Reaction - Inhibition of Proliferation (n = 10), Mean IC50 (nM)” value [4] was 2.15 nM. For the same binder, the “Mixed Lymphocyte Reaction - Inhibition of Proliferation (n = 10), Mean IC50 (µg/ml)” value [4] was 0.188 µg/mL, the “Tetanus Toxoid - Inhibition of Proliferation (n = 2), Mean IC50 (nM)” value [4] was 0.845 nM and the “Tetanus Toxoid - Inhibition of Proliferation (n = 2), Mean IC50 (µg/ml)” value [4] was 0.0733 µg/mL. For the same binder, the “IC50 for inhibition of proliferation, Tetanus Toxoid response, donor 1” value [5] was 0.58 nM and 0.051 µg/mL, the “IC50 for inhibition of proliferation, Tetanus Toxoid response, donor 2” value [5] was 1.11 nM and 0.097 µg/mL and the IC50 [6] was 4.1 nM. For the same binder, the Kd [7] was 1.19 nM and 1.07 nM and 1.05 nM, the Kd [8] was 1.86 nM and the Kd [9] was 1.2 nM. For the same binder, the Kd [10] was 0.0313 nM, the koff [10] was 1.3e-05 s⁻¹ and the kon [10] was 476000 M⁻¹ s⁻¹. For the same binder, the “fold drop off in affinity as compared to human” value [11] was under 2 fold.

B2: A26 (humanised CA044-00026, graft gL8gH2) Fab′ fragment, unPEGylated (Fab, V domains shown)
VH: B1 VH
VL: B1 VL
notes: Produced in E. coli; the OmpA signal peptide is cleaved off; also called unPEGylated humanised Fab fragment A26
B2 showed a Kd [2] of 0.019 to 0.0454 nM, a Kd [12] of 0.0296 nM and a koff [12] of 1.29e-05 s⁻¹. The kon [12] was 486000 M⁻¹ s⁻¹.

— patent US20100254978A1 (UCB, published 2010)
